The values that follow are results of earlier work, collected in article PMC2949527.

The data set addresses RFX5(25-90)2·RFXAP(214-272) complex 25-90 + 214-272 (Homo sapiens) (UniProt P48382).

pKd: −log10 of the molar value.

RFX5(25-90)2·RFXAP(214-272) complex 25-90 + 214-272 (Homo sapiens), sequence (P48382 2-616, chain 1 of 2): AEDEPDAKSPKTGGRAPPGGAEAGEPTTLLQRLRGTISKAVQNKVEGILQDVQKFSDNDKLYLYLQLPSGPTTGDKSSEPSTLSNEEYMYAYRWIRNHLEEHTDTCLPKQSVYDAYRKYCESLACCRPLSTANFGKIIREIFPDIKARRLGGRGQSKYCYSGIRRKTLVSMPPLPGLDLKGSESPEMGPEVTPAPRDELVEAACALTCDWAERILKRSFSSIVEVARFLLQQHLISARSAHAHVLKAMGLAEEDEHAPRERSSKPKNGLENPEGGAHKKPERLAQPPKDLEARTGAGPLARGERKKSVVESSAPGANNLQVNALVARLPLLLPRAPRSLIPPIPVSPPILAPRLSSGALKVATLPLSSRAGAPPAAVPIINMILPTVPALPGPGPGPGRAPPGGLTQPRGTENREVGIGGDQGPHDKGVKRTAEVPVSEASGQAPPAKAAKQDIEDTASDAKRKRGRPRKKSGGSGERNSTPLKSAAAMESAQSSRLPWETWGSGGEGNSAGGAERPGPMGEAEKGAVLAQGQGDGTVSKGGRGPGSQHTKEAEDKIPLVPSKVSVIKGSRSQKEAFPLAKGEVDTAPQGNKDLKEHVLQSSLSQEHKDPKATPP
RFX5(25-90)2·RFXAP(214-272) complex 25-90 + 214-272 (Homo sapiens), sequence (O00287 whole entry, chain 2 of 2, further chain): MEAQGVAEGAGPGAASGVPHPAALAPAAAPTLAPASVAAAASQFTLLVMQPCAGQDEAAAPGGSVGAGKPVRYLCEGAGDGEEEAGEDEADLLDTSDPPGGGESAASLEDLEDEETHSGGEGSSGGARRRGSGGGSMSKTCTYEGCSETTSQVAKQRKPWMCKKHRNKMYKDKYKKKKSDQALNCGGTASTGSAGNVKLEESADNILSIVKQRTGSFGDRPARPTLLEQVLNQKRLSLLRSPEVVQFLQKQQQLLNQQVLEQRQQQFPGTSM
RFXB, sequence (O14593 whole entry): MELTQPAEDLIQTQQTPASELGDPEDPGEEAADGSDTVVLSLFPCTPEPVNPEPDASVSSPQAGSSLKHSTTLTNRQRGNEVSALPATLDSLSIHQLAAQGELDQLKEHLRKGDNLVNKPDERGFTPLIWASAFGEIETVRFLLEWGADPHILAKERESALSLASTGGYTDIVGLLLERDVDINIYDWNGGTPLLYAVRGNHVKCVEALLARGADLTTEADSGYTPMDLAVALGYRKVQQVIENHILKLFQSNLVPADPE

For orientation: pKd means the Kd on a negative log10 scale, so that one unit is a factor of ten. For RFXB (from UniProt O14593), the negative logarithm of the Kd (pKd) is 7.12.
